# Test results as given in publication PMC6610660 (Structure (London, England : 1993), 2019).
# T1: SpNatA (Schizosaccharomyces pombe, UniProt O74985+Q9UTI3)
# T1 sequence (Q9UTI3 1-156): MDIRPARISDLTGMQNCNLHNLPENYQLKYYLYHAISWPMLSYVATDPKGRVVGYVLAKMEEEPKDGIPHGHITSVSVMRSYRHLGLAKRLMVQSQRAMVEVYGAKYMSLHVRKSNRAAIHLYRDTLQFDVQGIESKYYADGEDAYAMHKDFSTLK
# T1 sequence (O74985 1-729): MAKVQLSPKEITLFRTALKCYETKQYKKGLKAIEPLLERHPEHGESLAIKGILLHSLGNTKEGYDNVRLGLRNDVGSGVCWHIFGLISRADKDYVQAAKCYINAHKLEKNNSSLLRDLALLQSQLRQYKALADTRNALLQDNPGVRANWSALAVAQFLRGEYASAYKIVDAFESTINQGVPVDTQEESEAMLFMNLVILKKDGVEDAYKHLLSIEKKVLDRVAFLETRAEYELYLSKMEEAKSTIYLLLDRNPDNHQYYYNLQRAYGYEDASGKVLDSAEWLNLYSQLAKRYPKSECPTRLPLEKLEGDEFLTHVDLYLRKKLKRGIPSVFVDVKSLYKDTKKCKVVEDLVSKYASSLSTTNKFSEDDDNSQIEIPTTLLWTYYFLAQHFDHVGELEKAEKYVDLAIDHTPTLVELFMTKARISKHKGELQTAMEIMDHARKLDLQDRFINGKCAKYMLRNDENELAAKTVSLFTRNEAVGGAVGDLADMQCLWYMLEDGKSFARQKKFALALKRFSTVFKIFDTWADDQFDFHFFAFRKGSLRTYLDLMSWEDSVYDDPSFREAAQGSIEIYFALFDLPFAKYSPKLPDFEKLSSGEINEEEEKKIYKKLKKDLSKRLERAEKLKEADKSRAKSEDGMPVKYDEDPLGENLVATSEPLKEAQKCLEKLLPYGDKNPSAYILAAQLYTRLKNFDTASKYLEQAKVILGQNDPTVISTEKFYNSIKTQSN
# T2: human Naa50 (human, UniProt Q9GZZ1 1-169)
# T2 sequence: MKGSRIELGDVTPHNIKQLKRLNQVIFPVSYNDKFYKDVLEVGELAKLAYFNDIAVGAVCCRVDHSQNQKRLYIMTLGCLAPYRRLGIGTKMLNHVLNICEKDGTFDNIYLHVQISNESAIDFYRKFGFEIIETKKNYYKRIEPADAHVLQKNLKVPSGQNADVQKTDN
# B1: Saccharomyces cerevisiae NatA (ScNaa15/ScNaa10 complex), wild type (complex)
# chain 1: MSRKRSTKPKPAAKIALKKENDQFLEALKLYEGKQYKKSLKLLDAILKKDGSHVDSLALKGLDLYSVGEKDDAASYVANAIRKIEGASASPICCHVLGIYMRNTKEYKESIKWFTAALNNGSTNKQIYRDLATLQSQIGDFKNALVSRKKYWEAFLGYRANWTSLAVAQDVNGERQQAINTLSQFEKLAEGKISDSEKYEHSECLMYKNDIMYKAASDNQDKLQNVLKHLNDIEPCVFDKFGLLERKATIYMKLGQLKDASIVYRTLIKRNPDNFKYYKLLEVSLGIQGDNKLKKALYGKLEQFYPRCEPPKFIPLTFLQDKEELSKKLREYVLPQLERGVPATFSNVKPLYQRRKSKVSPLLEKIVLDYLSGLDPTQDPIPFIWTNYYLSQHFLFLKDFPKAQEYIDAALDHTPTLVEFYILKARILKHLGLMDTAAGILEEGRQLDLQDRFINCKTVKYFLRANNIDKAVEVASLFTKNDDSVNGIKDLHLVEASWFIVEQAEAYYRLYLDRKKKLDDLASLKKEVESDKSEQIANDIKENQWLVRKYKGLALKRFNAIPKFYKQFEDDQLDFHSYCMRKGTPRAYLEMLEWGKALYTKPMYVRAMKEASKLYFQMHDDRLKRKSDSLDENSDEIQNNGQNSSSQKKKAKKEAAAMNKRKETEAKSVAAYPSDQDNDVFGEKLIETSTPMEDFATEFYNNYSMQVREDERDYILDFEFNYRIGKLALCFASLNKFAKRFGTTSGLFGSMAIVLLHATRNDTPFDPILKKVVTKSLEKEYSENFPLNEISNNSFDWLNFYQEKFGKNDINGLLFLYRYRDDVPIGSSNLKEMIISSLSPLEPHSQNEILQYYL
# chain 2: MPINIRRATINDIICMQNANLHNLPENYMMKYYMYHILSWPEASFVATTTTLDCEDSDEQDENDKLELTLDGTNDGRTIKLDPTYLAPGEKLVGYVLVKMNDDPDQQNEPPNGHITSLSVMRTYRRMGIAENLMRQALFALREVHQAEYVSLHVRQSNRAALHLYRDTLAFEVLSIEKSYYQDGEDAYAMKKVLKLEELQISNFTHRRLKENEEKLEDDLESDLLE
# B2: human NatA (hNaa15/hNaa10 complex), wild type (complex)
# chain 1: MPAVSLPPKENALFKRILRCYEHKQYRNGLKFCKQILSNPKFAEHGETLAMKGLTLNCLGKKEEAYELVRRGLRNDLKSHVCWHVYGLLQRSDKKYDEAIKCYRNALKWDKDNLQILRDLSLLQIQMRDLEGYRETRYQLLQLRPAQRASWIGYAIAYHLLEDYEMAAKILEEFRKTQQTSPDKVDYEYSELLLYQNQVLREAGLYREALEHLCTYEKQICDKLAVEETKGELLLQLCRLEDAADVYRGLQERNPENWAYYKGLEKALKPANMLERLKIYEEAWTKYPRGLVPRRLPLNFLSGEKFKECLDKFLRMNFSKGCPPVFNTLRSLYKDKEKVAIIEELVVGYETSLKSCRLFNPNDDGKEEPPTTLLWVQYYLAQHYDKIGQPSIALEYINTAIESTPTLIELFLVKAKIYKHAGNIKEAARWMDEAQALDTADRFINSKCAKYMLKANLIKEAEEMCSKFTREGTSAVENLNEMQCMWFQTECAQAYKAMNKFGEALKKCHEIERHFIEITDDQFDFHTYCMRKITLRSYVDLLKLEDVLRQHPFYFKAARIAIEIYLKLHDNPLTDENKEHEADTANMSDKELKKLRNKQRRAQKKAQIEEEKKNAEKEKQQRNQKKKKDDDDEEIGGPKEELIPEKLAKVETPLEEAIKFLTPLKNLVKNKIETHLFAFEIYFRKEKFLLMLQSVKRAFAIDSSHPWLHECMIRLFNTAVCESKDLSDTVRTVLKQEMNRLFGATNPKNFNETFLKRNSDSLPHRLSAAKMVYYLDPSSQKRAIELATTLDESLTNRNLQTCMEVLEALYDGSLGDCKEAAEIYRANCHKLFPYALAFMPPGYEEDMKITVNGDSSAEAEELANEI
# chain 2: MNIRNARPEDLMNMQHCNLLCLPENYQMKYYFYHGLSWPQLSYIAEDENGKIVGYVLAKMEEDPDDVPHGHITSLAVKRSHRRLGLAQKLMDQASRAMIENFNAKYVSLHVRKSNRAALHLYSNTLNFQISEVEPKYYADGEDAYAMKRDLTQMADELRRHLELKEKGRHVVLGAIENKVESKGNSPPSSGEACREEKGLAAEDSGGDSKDLSEVSETTESTDVKDSSEASDSAS
# B3: Schizosaccharomyces pombe NatA (SpNaa15/SpNaa10 complex), wild type (complex)
# chain 1: T1 sequence (O74985 1-729)
# chain 2: T1 sequence (Q9UTI3 1-156)
# Experiments:
# ScNatA/Naa50 = ScNatA/Naa50 (Saccharomyces cerevisiae, UniProt P07347+P12945+Q08689); test: X-ray crystal structure, […] Å; assay type: binding; conditions: site between Naa10 and Naa15
# ScNatA/Naa50, sequence (Q08689 whole entry, one chain of several, the tested form may be a part): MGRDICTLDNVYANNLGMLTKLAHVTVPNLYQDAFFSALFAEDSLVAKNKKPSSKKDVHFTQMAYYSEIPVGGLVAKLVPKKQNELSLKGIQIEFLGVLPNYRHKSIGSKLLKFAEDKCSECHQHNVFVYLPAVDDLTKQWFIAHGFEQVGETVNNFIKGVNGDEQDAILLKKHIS
# GST-ScNaa50 = GST-ScNaa50 (Saccharomyces cerevisiae, UniProt Q08689); test: ITC; assay type: binding; conditions: 20 °C, pH 7.0, 200 mM NaCl, 1 mM DTT; GST fusion, free GST negative
# GST-ScNaa50, sequence (Q08689 whole entry, the tested form may be a part): as the sequence (Q08689 whole entry, one chain of several, the tested form may be a part) above
# SpNatA = target: T1, SpNatA; test: ITC; assay type: binding; conditions: 20 °C, pH 7.0, 200 mM NaCl, 1 mM DTT; Naa10 site
# [1] = target: Schizosaccharomyces pombe Naa50 (S. pombe); test: differential scanning fluorimetry
# human Naa50 = target: T2, human Naa50; test: differential scanning fluorimetry
# [2] = target: Schizosaccharomyces pombe Naa50 labeled with Fluorescein-5-Maleimide (S. pombe); test: fluorescence polarisation
molecule,measurement,setting,value
O=P(O)(O)O[C@H]1[C@H](OP(=O)(O)O)[C@@H](OP(=O)(O)O)[C@H](OP(=O)(O)O)[C@@H](OP(=O)(O)O)[C@H]1OP(=O)(O)O [IP6],"X-ray crystal structure, 2.7 Å",ScNatA/Naa50,Clear electron density for IP6 was visible between Naa10 and Naa15
CC(=O)SCCNC(=O)CCNC(=O)[C@H](O)C(C)(C)COP(=O)(O)OP(=O)(O)OC[C@H]1O[C@@H](n2cnc3c(N)ncnc32)[C@H](O)[C@@H]1OP(=O)(O)O [acetyl-CoA],ITC,GST-ScNaa50,binding signal was detected by ITC between GST-ScNaa50 and acetyl-CoA
same,dissociation constant,SpNatA,Representative ITC curve of acetyl-CoA titrated into SpNatA. The calculated dissociation constant is indicated
B1,increase of the melting temperature of NatA on addition of Naa50,[1],7.4 °C
B2,melting temperature of NatA with Naa50 added (NatA alone 44 °C),human Naa50,46.6 °C
B3,melting temperature of NatA with Naa50 added (NatA alone 37.8 °C),[1],40.4 °C
same,Kd,[2],17 nM
